Article doi:10.1101/2024.05.03.592409 (bioRxiv, 2024)
Blank lines part the entries; values can stand above or below the molecule they belong to.

How the values were obtained:
Test in all cases: PIE-FCCS
[1] = target: GCN4 (membrane protein construct, live-cell dimer control)
HER3 = HER3 (human, UniProt P21860 20-1342)
EGFR = EGFR (human, UniProt P00533 25-1210)
HER2 = HER2 (human, UniProt P04626 23-1255)

Chain of HER3 (P21860 20-1342): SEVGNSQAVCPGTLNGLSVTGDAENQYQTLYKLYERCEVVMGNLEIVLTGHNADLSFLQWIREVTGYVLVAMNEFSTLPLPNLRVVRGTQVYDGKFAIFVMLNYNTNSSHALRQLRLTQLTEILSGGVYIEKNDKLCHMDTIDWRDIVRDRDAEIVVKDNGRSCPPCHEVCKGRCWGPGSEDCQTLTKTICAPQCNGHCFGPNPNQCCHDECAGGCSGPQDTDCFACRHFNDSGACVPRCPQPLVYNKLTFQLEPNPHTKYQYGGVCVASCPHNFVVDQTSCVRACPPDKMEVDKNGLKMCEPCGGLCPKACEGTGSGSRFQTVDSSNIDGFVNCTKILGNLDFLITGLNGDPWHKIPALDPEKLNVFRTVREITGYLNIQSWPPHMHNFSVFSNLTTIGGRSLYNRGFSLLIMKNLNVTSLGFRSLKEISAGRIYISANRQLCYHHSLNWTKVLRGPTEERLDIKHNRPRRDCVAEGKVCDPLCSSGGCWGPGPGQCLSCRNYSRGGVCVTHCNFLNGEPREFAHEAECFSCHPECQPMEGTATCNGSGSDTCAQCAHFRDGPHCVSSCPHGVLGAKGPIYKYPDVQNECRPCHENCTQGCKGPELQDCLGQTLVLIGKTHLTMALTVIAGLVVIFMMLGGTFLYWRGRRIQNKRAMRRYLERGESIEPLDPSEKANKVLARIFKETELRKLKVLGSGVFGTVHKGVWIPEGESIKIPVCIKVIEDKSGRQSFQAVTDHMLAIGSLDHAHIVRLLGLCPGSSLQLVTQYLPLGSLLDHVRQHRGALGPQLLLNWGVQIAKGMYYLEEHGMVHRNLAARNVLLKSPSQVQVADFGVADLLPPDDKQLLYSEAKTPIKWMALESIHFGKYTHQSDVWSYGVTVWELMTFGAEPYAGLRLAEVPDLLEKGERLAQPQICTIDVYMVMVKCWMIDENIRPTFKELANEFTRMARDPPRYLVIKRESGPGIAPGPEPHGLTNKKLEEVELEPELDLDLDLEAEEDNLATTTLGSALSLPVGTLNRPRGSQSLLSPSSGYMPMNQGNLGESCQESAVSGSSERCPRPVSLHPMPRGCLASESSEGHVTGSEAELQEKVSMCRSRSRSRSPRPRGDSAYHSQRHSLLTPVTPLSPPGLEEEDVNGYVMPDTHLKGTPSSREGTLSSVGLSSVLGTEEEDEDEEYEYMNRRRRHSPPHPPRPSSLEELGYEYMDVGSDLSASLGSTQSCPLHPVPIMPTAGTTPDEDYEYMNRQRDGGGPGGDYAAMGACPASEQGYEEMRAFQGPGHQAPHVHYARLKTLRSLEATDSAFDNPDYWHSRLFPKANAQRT

median fc (fraction of cross-correlation) [1]: 0.15 | stoichiometry N [1]: 2
Molecule: GCN4 (membrane protein construct, live-cell dimer control)

median fc (fraction of cross-correlation) (HER3): 0.11 | median fc (fraction of cross-correlation) (EGFR): 0.17 | median fc (fraction of cross-correlation) (HER2): 0.17
B1: HER4 (receptor)
chain: QSVCAGTENKLSSLSDLEQQYRALRKYYENCEVVMGNLEITSIEHNRDLSFLRSVREVTGYVLVALNQFRYLPLENLRIIRGTKLYEDRYALAIFLNYRKDGNFGLQELGLKNLTEILNGGVYVDQNKFLCYADTIHWQDIVRNPWPSNLTLVSTNGSSGCGRCHKSCTGRCWGPTENHCQTLTRTVCAEQCDGRCYGPYVSDCCHRECAGGCSGPKDTDCFACMNFNDSGACVTQCPQTFVYNPTTFQLEHNFNAKYTYGAFCVKKCPHNFVVDSSSCVRACPSSKMEVEENGIKMCKPCTDICPKACDGIGTGSLMSAQTVDSSNIDKFINCTKINGNLIFLVTGIHGDPYNAIEAIDPEKLNVFRTVREITGFLNIQSWPPNMTDFSVFSNLVTIGGRVLYSGLSLLILKQQGITSLQFQSLKEISAGNIYITDNSNLCYYHTINWTTLFSTINQRIVIRDNRKAENCTAEGMVCNHLCSSDGCWGPGPDQCLSCRRFSRGRICIESCNLYDGEFREFENGSICVECDPQCEKMEDGLLTCHGPGPDNCTKCSHFKDGPNCVEKCPDGLQGANSFIFKYADPDRECHPCHPNCTQGCNGPTSHDCIYYPWTGHSTLPQHARTPLIAAGVIGGLFILVIVGLTFAVYVRRKSIKKKRALRRFLETELVEPLTPSGTAPNQAQLRILKETELKRVKVLGSGAFGTVYKGIWVPEGETVKIPVAIKILNETTGPKANVEFMDEALIMASMDHPHLVRLLGVCLSPTIQLVTQLMPHGCLLEYVHEHKDNIGSQLLLNWCVQIAKGMMYLEERRLVHRDLAARNVLVKSPNHVKITDFGLARLLEGDEKEYNADGGKMPIKWMALECIHYRKFTHQSDVWSYGVTIWELMTFGGKPYDGIPTREIPDLLEKGERLPQPPICTIDVYMVMVKCWMIDADSRPKFKELAAEFSRMARDPQRYLVIQGDDRMKLPSPNDSKFFQNLLDEEDLEDMMDAEEYLVPQAFNIPPPIYTSRARIDSNRSEIGHSPPPAYTPMSGNQFVYRDGGFAAEQGVSVPYRAPTSTIPEAPVAQGATAEIFDDSCCNGTLRKPVAPHVQEDSSTQRYSADPTVFAPERSPRGELDEEGYMTPMRDKPKQEYLNPVEENPFVSRRKNGDLQALDNPEYHNASNGPPKAEDEYVNEPLYLNTFANTLGKAEYLKNNILSMPEKAKKAFDNPDYWNHSLPPRSTLQHPDYLQEYSTKYFYKQNGRIRPIVAENPEYLSEFSLKPGTVLPPPPYRHRNTVV
